Measured values published in patent publication US20170305975A1 (PROCLARA BIOSCIENCES, published 2017).
Read-outs that look alike come from different tables or passages of the source.

How the values were obtained:
[1] = biological target: T1, amyloid-β 1-42 fibers (fAβ42) (human, UniProt P05067 672-713); test: competition with M13-Alexa488 for fAβ, fiber sedimentation assay
T1 construct: domain: amyloid-β 1-42; also called Aβ fibrils; Aβ fibers

tau fibers (ftau) = test: SPR, Construct 4 on ftau
[2] = biological target: T1, amyloid-β 1-42 fibers (fAβ42); test: SPR on Aβ fibrils, 25° C.
[3] = biological target: T1, amyloid-β 1-42 fibers (fAβ42); test: competition with labeled M13 for binding to Aβ, 45 minutes at 37 °C; phage with or without pre-activation at 50 °C for 1.5 hours
[4] = biological target: T1, amyloid-β 1-42 fibers (fAβ42); test: SPR, 10^14 phage/mL over immobilized fAβ
[5] = biological target: T1, amyloid-β 1-42 fibers (fAβ42)
[6] = biological target: T1, amyloid-β 1-42 fibers (fAβ42); test: SPR on Aβ fibrils
[7] = biological target: T1, amyloid-β 1-42 fibers (fAβ42); test: SPR, calculated from the data of FIG. 3A
[8] = biological target: T1, amyloid-β 1-42 fibers (fAβ42); test: cell-based or functional assay
[9] = biological target: T1, amyloid-β 1-42 fibers (fAβ42); test: SPR, Aβ42 fibers immobilized on a CM3 surface, about 2 µM analyte at 5 µl/min
[10] = biological target: T1, amyloid-β 1-42 fibers (fAβ42); test: SPR, 4 µM rs-g3p(N1N2) on Aβ fibrils
[11] = biological target: T1, amyloid-β 1-42 fibers (fAβ42); test: SPR on Aβ fibrils, analyte preheated at 37° C.

T1 sequence (P05067 672-713 limits assumed): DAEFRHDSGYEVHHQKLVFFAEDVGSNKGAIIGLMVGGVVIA

B1: If1N1N2 g3p (without Fc domain) (other)
chain: ATTDAECLSKPAFDGTLSNVWKEGDSRYANFENCIYELSGIGIGYDNDTSWNGHWTPVRAADGSGNGGDDNSSGGGSNGDSGNNSTPDTVTPGQTVNLPSDLSTLSIPANVVKSDSIGSQFSLYTNASCTMCSGYYLSNNADSIAIANITETVKADYNQPDMWFEQTDSDGNHVKILQNSYKAVSYNVESKQSDVNNPTYINYSYSVNVKQVSYDTSNVCIMNWETFQNKCDASRAVLITDTVTPSYSRNITIQSNINYQGSNGSGGSGGSGGSG
fold better binding than M13 N1N2 g3p [1]: ~4 fold

B2: rs-g3p(N1N2)-hIgG4-Fc fusion protein (Construct 4) (Fc fusion)
chain: MAETVESCLAKPHTENSFTNVWKDDKTLDRYANYEGCLWNATGVVVCTGDETQCYGTWVPIGLAIPENEGGGSEGGGSEGGGSEGGGTKPPEYGDTPIPGYTYINPLDGTYPPGTEQNPANPNPSLEESQPLNTFMFQNNRFRNRQGALTVYTGTVTQGTDPVKTYYQYTPVSSKAMYDAYWNGKFRDCAFHSGFNEDPFVCEYQGQSSDLPQPPVNAGGGSGGGSGGGSEGGGSEGGGSEGGGSEGGGSGGGSGSGAMVRSPPCPSCPAPEFLGGPSVFLFPPKPKDTLMISRTPEVTCVVVDVSQEDPEVQFNWYVDGVEVHNAKTKPREEQFNSTYRVVSVLTVLHQDWLNGKEYKCKVSNKGLPSSIEKTISKAKGQPREPQVYTLPPSQEEMTKNQVSLTCLVKGFYPSDIAVEWESNGQPENNYKTTPPVLDSDGSFFLYSRLTVDKSRWQEGNVFSCSVMHEALHNHYTQKSLSLSPGK
notes: also called rs-g3p(N1N2)-Ig fusion; bivalent rs-g3p(N1N2)-Ig fusion
Kd (tau fibers (ftau)): 62.9 nM | Kd [2]: 7.32 nM | koff [2]: 0.000128 s⁻¹ | kon [2]: 17500 M⁻¹ s⁻¹

B3: rs-g3p(N1N2)-hIgG4-Fc fusion protein (Construct 5) (Fc fusion)
chain: MAETVESCLAKPHTENSFTNVWKDDKTLDRYANYEGCLWNATGVVVCTGDETQCYGTWVPIGLAIPENEGGGSEGGGSEGGGSEGGGTKPPEYGDTPIPGYTYINPLDGTYPPGTEQNPANPNPSLEESQPLNTFMFQNNRFRNRQGALTVYTGTFTQGTDPVKTYYQYTPVSSKAMYDAYWNGKFRDCAFHSGFNEDPFVCEYQGQSSDLPQPPVNAGGGSGGGSGGGSEGGGSEGGGSEGGGSEGGGSGGGSGSGAMVRSPPCPSCPAPEFLGGPSVFLFPPKPKDTLMISRTPEVTCVVVDVSQEDPEVQFNWYVDGVEVHNAKTKPREEQFNSTYRVVSVLTVLHQDWLNGKEYKCKVSNKGLPSSIEKTISKAKGQPREPQVYTLPPSQEEMTKNQVSLTCLVKGFYPSDIAVEWESNGQPENNYKTTPPVLDSDGSFFLYSRLTVDKSRWQEGNVFSCSVMHEALHNHYTQKSLSLSPGK
Kd [2]: 10.9 nM | koff [2]: 0.000166 s⁻¹ | kon [2]: 15200 M⁻¹ s⁻¹

B4: phage fd (wild type) (other)
chain: AETVESCLAKPHTENSFTNVWKDDKTLDRYANYEGCLWNATGVVVCTGDETQCYGTWVPIGLAIPENEGGGSEGGGSEGGGSEGGGTKPPEYGDTPIPGYTYINPLDGTYPPGTEQNPANPNPSLEESQPLNTFMFQNNRFRNRQGALTVYTGTVTQGTDPVKTYYQYTPVSSKAMYDAYWNGKFRDCAFHSGFNEDPFVCEYQGQSSDLPQPPVNAGGGSGGGSGGGSEGGGSEGGGSEGGGSEGGGSGGGSGSGDFDYEKMANANKGAMTENADENALQSDAKGKLDSVATDYGAAIDGFIGDVSGLANGNGATGDFAGSNSQMAQVGDGDNSPLMNNFRQYLPSLPQSVECRPYVFGAGKPYEFSIDCDKINLFRGVFAFLLYVATFMYVFSTFANILRNKES
binding result [3]: binds

B5: M13 phage (Construct 1) (other)
chain: AETVESCLAKPHTENSFTNVWKDDKTLDRYANYEGCLWNATGVVVCTGDETQCYGTWVPIGLAIPENEGGGSEGGGSEGGGSEGGGTKPPEYGDTPIPGYTYINPLDGTYPPGTEQNPANPNPSLEESQPLNTFMFQNNRFRNRQGALTVYTGTVTQGTDPVKTYYQYTPVSSKAMYDAYWNGKFRDCAFHSGFNEDPFVCEYQGQSSDLPQPPVNAGGGSGGGSGGGSEGGGSEGGGSEGGGSEGGGSGGGSGSGDFDYEKMANANKGAMTENADENALQSDAKGKLDSVATDYGAAIDGFIGDVSGLANGNGATGDFAGSNSQMAQVGDGDNSPLMNNFRQYLPSLPQSVECRPFVFGAGKPYEFSIDCDKINLFRGVFAFLLYVATFMYVFSTFANILRNKES
Kd [4]: ~4 nM | Kd [5]: ~7 nM | Kd [6]: 3.59 nM | koff [6]: 9.2e-06 s⁻¹ | kon [6]: 2600 M⁻¹ s⁻¹

B6: M13 phage (construct not stated) (other)
chain: AETVESCLAKPHTENSFTNVWKDDKTLDRYANYEGCLWNATGVVVCTGDETQCYGTWVPIGLAIPENEGGGSEGGGSEGGGSEGGGTKPPEYGDTPIPGYTYINPLDGTYPPGTEQNPANPNPSLEESQPLNTFMFQNNRFRNRQGALTVYTGTVTQGTDPVKTYYQYTPVSSKAMYDAYWNGKFRDCAFHSGFNEDPFVCEYQGQSSDLPQPPVNAGGGSGGGSGGGSEGGGSEGGGSEGGGSEGGGSGGGSGSGDFDYEKMANANKGAMTENADENALQSDAKGKLDSVATDYGAAIDGFIGDVSGLANGNGATGDFAGSNSQMAQVGDGDNSPLMNNFRQYLPSLPQSVECRPFVFSAGKPYEFSIDCDKINLFRGVFAFLLYVATFMYVFSTFANILRNKES
notes: also called wild type M13; labeled M13
Kd [7]: 3.59 nM

B7: recombinant soluble N1N2 fragment of g3p, rs-g3p(N1N2) (Construct 3) (other)
chain: MAETVESCLAKSHTENSFTNVWKDDKTLDRYANYEGCLWNATGVVVCTGDETQCYGTWVPIGLAIPENEGGGSEGGGSEGGGSEGGGTKPPEYGDTPIPGYTYINPLDGTYPPGTEQNPANPNPSLEESQPLNTFMFQNNRFRNRQGALTVYTGTVTQGTDPVKTYYQYTPVSSKAMYDAYWNGKFRDCAFHSGFNEDLFVCEYQGQSSDLPQPPVNAPSGHHHHHH
notes: also called monomer; monomeric g3p
IC50 of inhibition of Aβ42 fiber formation, ThT fluorescence (10 µM Aβ42 monomers, 37° C., 3 days) [8]: ~20 nM | Kd [9]: ~150 nM | Kd [10]: ~160 nM | Kd [2]: 150 nM | koff [2]: 0.00024 s⁻¹ | kon [2]: 1500 M⁻¹ s⁻¹ | Kd [11]: 50 nM | koff [11]: 0.0002 s⁻¹ | kon [11]: 4100 M⁻¹ s⁻¹
